Results published in patent US20100273983A1, “METHOD OF PURIFYING PEPTIDES BY SELECTIVE PRECIPITATION” (The University of Queensland, priority 2007, published 2010).

Legend:
Type in all cases: physicochemical
[1] = Ethanol precipitation of AM1-spiked E. coli cell lysate supernatant containing MBP; AM1 in supernatants and pellets by RP-HPLC
Method: For the precipitation with ethanol the cell lysate supernatant was spiked with chemically synthesized AM1 peptide to a final concentration of 0.286 μg AM1 per μL. AM1 was custom synthesized by Genscript (Piscataway, USA). The purity was >95% by reversed-phase high performance liquid chromatography. The peptide was stored in a lyophilized form and was dissolved in 0.1% v/v TFA prior to use (cAm1=1 mg/mL).
For the ethanol precipitation experiment, 420 μL of AM1 (in 0.1% v/v TFA, 1 μg/μL) was added to 1050 μL of lysate supernatant and mixed by vortexing. The samples were prepared with different ethanol concentrations ranging from 50-75% (v/v).
The samples were incubated on a roller mixer at speed adjustment 7.5 for 17 h. The tubes were centrifuged at 15,000 rpm for 10 min. […] The protein present in the urea dissolved pellets, as well as the supernants was directly analyzed by Bradford and SDS-PAGE.
For quantitative analysis of AM1 peptide in the supernatants and pellets, reversed-phase high performance liquid chromatography (RP-HPLC) was used with an analytical C18 column (Jupiter 00F-4053-E0, Phenomenex, UK). […]
The retention time of AM1 at the above mentioned elution gradient and flow rate was tR=21.5 min. […] The following equation was used to determine the amount of AM1 in the supernatants and pellets as a function of the peak area detected by RP-HPLC: Detected peak area/1207925=μg of AM1 peptide.

[2] = Solvent (ethanol/acetone) precipitation of TEVp cleaved Trx-P11-2 homogenate; peptide in supernatants and pellets by HPLC
Method: Homogenate was heat-treated by incubating samples in a water bath at 55° C. for 15 min. The effect on the solubility of the fusion protein was assessed by SDS-PAGE and HPLC analysis of heat-treated homogenate before and after centrifugation (10000×g, 10 min). The effect on the stability of the P11-2 peptide was analyzed by comparing cleavage reactions (at 0, 1, 2 and 3 h) with a final substrate concentration of 160 μM Trx-P11-2 and 8 μM TEVp, prepared with heat-treated and non heat-treated homogenate. Conditions were optimized by evaluating reactions prepared with 8 μM TEVp and 160, 240 and 320 μM Trx-P11-2 after 0, 1, 2 and 3 h. The effect of salt on enzyme activity was assessed by analyzing cleavage reactions prepared with 8 μM TEVp and 320 μM Trx-P11-2, that were supplemented with either 50, 150 or 250 mM NaCl. These cleavage reactions were analyzed at 0, 1, 2 and 3 h by SDS-PAGE and HPLC. After 3 h, ethanol was added to a final concentration of 75% (v/v) and samples were incubated at room temperature for 10 min before centrifuging at 10 000×g for 5 min. The supernatants were diluted with water to reduce the percentage of ethanol and analyzed by HPLC.
All precipitation experiments were performed with the same batch of Trx-P11-2, cleaved with a 40:1 (substrate:enzyme) molar ratio, a substrate concentration of 320 μM (5.12 mg ml^−1) and in the presence of 250 mM NaCl. The precipitation samples were centrifuged for 5 min at 10000×g, and the supernatants collected and analyzed by HPLC to quantify the peptide present. The pellets were resuspended in 6 M guanidine hydrochloride to the same volume as the supernatants, and analysed by HPLC. Acetone and ethanol precipitations were performed using HPLC grade ethanol and acetone, which was added to samples to final concentrations of 20, 40, 60, 65, 70, 75, 80, and 85% (v/v) before incubating for 10 min at room temperature and centrifuging for 5 min at 10000×g. The supernatants were collected and dried using an RVC 2-18 speed-vac (Christ, Osterode, Germany), the pellets were air-dried and both were resuspended in 6 M guanidine hydrochloride. The samples were analyzed by HPLC to quantify the peptide and Bradford assay to quantify the total protein remaining. The peptide and protein remaining in the pellets and supernatants were compared to the results obtained for the starting cleavage reactions to determine the percentages of peptide and protein in each fraction.
Reversed-phase HPLC(RP-HPLC) was carried out using an analytical C5 column (Jupiter, 150 mm×4.6 mm, 5μ, 300 Å) (Phenomenex, Torrance, Calif., USA) connected to a LC-10Avp series HPLC system (Shimadzu, Kyoto, Japan) with a mobile phase A, 0.1% (v/v) trifluoroacetic acid (TFA) in water and B, 90% (v/v) acetonitrile, 0.1% (v/v) TFA in water. Initial analysis of fusion protein and cleavage was performed using a linear gradient from 10% B to 60% B in 50 min at a flow rate of 1 ml min^−1. Peptides were analyzed, collected and quantified using a linear gradient from 10% B to 35% B in 25 min. Final peptide preparation was assessed using a linear gradient from 10% B to 90% B in 80 min. All samples were diluted 1:2 in 6 M guanidine-HCl prior to injection for the purpose of column preservation unless stated otherwise.

[3] = as above; remark: listed apart in the source
[4] = Stability of peptide and fusion protein in cell homogenate (TEVp cleavage reactions, HPLC/SDS-PAGE); settings: homogenate without heat-treatment; degradation most likely by cellular proteases
Method: All cleavage reactions were performed with recombinant TEVp, using homogenate prepared as above, where the Trx-P11-2 content had been HPLC quantified. Cleavage reactions were performed in TEVp reaction buffer, at room temperature, in sealed tubes that had been purged of air with nitrogen. All reactions were stopped by the addition of equal volumes of either 6 M guanidine hydrochloride or 2×SDS-PAGE sample buffer and analyzed by HPLC (to quantify peptide generation) and SDS-PAGE (to confirm cleavage of the fusion protein), respectively.
Homogenate was heat-treated by incubating samples in a water bath at 55° C. for 15 min. […] The effect on the stability of the P11-2 peptide was analyzed by comparing cleavage reactions (at 0, 1, 2 and 3 h) with a final substrate concentration of 160 μM Trx-P11-2 and 8 μM TEVp, prepared with heat-treated and non heat-treated homogenate. […] The effect of salt on enzyme activity was assessed by analyzing cleavage reactions prepared with 8 μM TEVp and 320 μM Trx-P11-2, that were supplemented with either 50, 150 or 250 mM NaCl. These cleavage reactions were analyzed at 0, 1, 2 and 3 h by SDS-PAGE and HPLC. […] The supernatants were diluted with water to reduce the percentage of ethanol and analyzed by HPLC.

Row | Substance | percentage of AM1 present in the precipitate ([1]; ethanol 50-75% (v/v), 23° C., 17 h, relative to AM1 in starting material) | peptide in the original lysate recovered from the supernatant ([1]; precipitation at greater than 65% (v/v) ethanol) | yield of peptide in the supernatant after precipitation ([2]; 50 mM NaCl, 75% (v/v) ethanol) [%] | yield of peptide in the supernatant after precipitation ([2]; 150 mM NaCl, 75% (v/v) ethanol) [%] | yield of peptide in the supernatant after precipitation ([2]; 250 mM NaCl, 75% (v/v) ethanol) [%] | peptide losses on acetone precipitation ([2]; 75% (v/v) acetone, 250 mM salt) | peptide yield on ethanol precipitation ([2]; 75% (v/v) ethanol, 250 mM salt) | solubility of peptide in acetone ([2]; 85% (v/v) acetone, 250 mM salt) | losses of peptide on ethanol precipitation ([2]; 85% (v/v) ethanol, 250 mM salt) [%] | yield of peptide after removal of contaminating proteins with solvent precipitation ([2]; finalized process, 1 L culture, 75% (v/v) ethanol, 250 mM NaCl) [%] | losses of peptide on precipitation ([2]; room temperature, 70-75% (v/v) ethanol or acetone, 250 mM salt) [%] | solubility of purified peptide at high solvent concentrations ([3]; purified peptide, results not shown) | behaviour of peptide on solvent precipitation without salt ([3]; standard TEVp reaction buffer (10 mM Tris-Cl, 0.5 mM EDTA, 5 mM DTT, pH 8.0), in homogenate) | stability in homogenate [4]
1 | Ac-MKQLADSLHQLARQVRSLEHA-CONH2 (Ac-MKQLADSLHQLARQVRSLEHA-NH2) [AM1] | approximately 5% | Over 80% |  |  |  |  |  |  |  |  |  |  |  | 
2 | QQRFQWQFEQQ [P11-2] |  |  | 55 | 81 | 95 | exceeding 30% | over 90% | almost completely insoluble | > 70 | 95 | < 5 | soluble | co-precipitated with the contaminating proteins | quickly degraded
